Reference: PMC4987290 (The Journal of Cell Biology, 2016)

What was measured:
Myo1E (myosin 1E) = Myo1E (myosin 1E) (UniProt Q12965); assay: reciprocal co-IP of endogenous proteins, immunoblot; conditions: sites S202
recombinant SH3P2 = molecular target: T1, recombinant SH3P2 (human, UniProt Q92882 1-214); assay: pull-down
T1 sequence (looked up): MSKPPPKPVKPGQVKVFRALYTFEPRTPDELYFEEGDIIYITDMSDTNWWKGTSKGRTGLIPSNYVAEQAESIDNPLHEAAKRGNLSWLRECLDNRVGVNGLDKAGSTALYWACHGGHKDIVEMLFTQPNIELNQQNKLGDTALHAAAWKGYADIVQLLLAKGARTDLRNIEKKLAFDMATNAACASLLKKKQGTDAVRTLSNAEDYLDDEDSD

Q: With “SH3P2 (from UniProt Q92882) 10 µM PD184352, 4 h” as the molecule, how does the “other: % of lysate Myo1E associated with SH3P2” value (Myo1E (myosin 1E); reference: untreated cells) read?
A: Its value is “stronger; reference 6.1 ± 2.1”.

Q: “SH3P2 (from UniProt Q92882) 10% FBS, 10 min” was tested. Which “other: % of lysate Myo1E associated with SH3P2” value (Myo1E (myosin 1E); reference: serum-deprived cells) did it give?
A: Its value is “weaker; reference 78.4 ± 6.8”.

B1: GST-Myo1E(SH3) (domain or fragment, human, UniProt Q12965 1039-1108, looked up)
chain: AGGRPKPQPKPKPQVPQCKALYAYDAQDTDELSFNANDIIDIIKEDPSGWWTGRLRGKQGLFPNNYVTKI
Q: Does B1 bind (recombinant SH3P2)?
A: Result: binds
